Legend:
human SIRPα variant 2 [1] = target: T1, human SIRPα variant 2 (human, UniProt P78324 31-504); assay: CELISA, CHO-K1 transfectants
T1 construct: full length ORF on transfected CHO-K1 cells; also called hSIRPαV2; SIRPαV2
Protocol: (§1) Reactivity was confirmed using CHO-K1 cells (ATCC CCL-61) expressing a cDNA encoding the full length open reading frame of hSIRPαV1, hSIRPαV1(P74A), hSIRPαV2, and hSIRPβ1 subcloned into the pCI-neo vector (Promega, Madison, Wis.). CHO-K1.hSIRPαV1, CHO-K1.hSIRPαV1(P74A), CHO-K1.hSIRPαV2, and CHO-K1.hSIRPβ1 cells were seeded in culture medium (DMEM-F12 (Gibco) supplemented with 5% New Born Calf Serum (BioWest) and Pen/Strep (Gibco)) in 96-well flat-bottom tissue culture plates and incubated at 37° C., 5% CO₂ and 95% humidity for 24 hours. Subsequently, culture medium was removed and cells were incubated for 1 hour at 37° C., 5% CO₂ and 95% humidity with purified hSIRPα antibodies (used at 10 μg/mL and dilutions thereof). Next, cells were washed with PBS-T and incubated for 1 hour at 37° C., 5% CO₂ and 95% humidity with goat-anti-mouse IgG-HRP (Southern Biotech). Subsequently, cells were washed three times with PBS-T and immunoreactivity against hSIRPαV1, hSIRPαV1(P74A), hSIRPαV2, and hSIRPβ1 was visualized with TMB Stabilized Chromogen (Invitrogen). Reactions were stopped with 0.5 M H₂SO₄ and absorbances were read at 450 and 610 nm.

human SIRPα variant 1 [2] = target: T2, human SIRPα variant 1 (human, UniProt P78324 31-504); assay: CELISA, CHO-K1 transfectants
T2 construct: full length ORF on transfected CHO-K1 or HEK293 cells; entry includes the signal peptide; also called hSIRPαV1; SIRPαV1
Protocol: as §1

human SIRPα variant 1 [3] = target: T2, human SIRPα variant 1; assay: CELISA, CHO-K1 transfectants; remark: listed apart in the source
Protocol: The specificity of monoclonal anti-hSIRPα antibodies (e.g., including the hSIRPα antibodies known in the art, KWAR23 ([…]. Patent CA2939293 A1), 18D5 (Patent WO2017/178653 A2), and various commercially available hSIRPα antibodies) for binding to hSIRPαV1, hSIRPαV1(P74A), and hSIRPβ1 was evaluated by CELISA. Reactivity was confirmed using CHO-K1 cells (ATCC CCL-61) expressing a cDNA encoding the full length open reading frame of hSIRPαV1, hSIRPαV1(P74A), and hSIRPβ1 subcloned into the pCI-neo vector (Promega, Madison, Wis.). CHO-K1.hSIRPαV1, CHO-K1.hSIRPαV1(P74A), and CHO-K1.hSIRPβ1 cells were seeded in culture medium (DMEM-F12 (Gibco) supplemented with 5% New Born Calf Serum (BioWest) and Pen/Strep (Gibco)) in 96-well flat-bottom tissue culture plates and incubated at 37° C., 5% CO₂ and 95% humidity for 24 hours. Subsequently, culture medium was removed and cells were incubated for 1 hour at 37° C., 5% CO₂ and 95% humidity with purified hSIRPα antibodies (used at 10 μg/ml and dilutions thereof). Next, cells were washed with PBS-T and incubated for 1 hour at 37° C., 5% CO₂ and 95% humidity with either goat-anti-mouse IgG-HRP (Southern Biotech), goat-anti-human IgG-HRP (Jackson Immuno Research), or goat-anti-rabbit IgG-HRP (Southern Biotech). Subsequently, cells were washed three times with PBS-T and immunoreactivity against hSIRPαV1, hSIRPαV1(P74A), and hSIRPβ1 was visualized with TMB Stabilized Chromogen (Invitrogen). Reactions were stopped with 0.5 M H₂SO₄ and absorbances were read at 450 and 610 nm.

human SIRPα variant 1 [4] = target: T2, human SIRPα variant 1; assay: flow cytometry, blockade of DyLight488-hCD47/Fc binding to U-937 cells
How it was run: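 THP-1 or U-937 monocyte cells in 96-well round-bottom plates were incubated for 45 minutes at 4 °C in PBS/1% BSA with FcR Blocking Reagent and a dilution series of anti-SIRPα antibody. Cells were washed, resuspended with 0.1 μg/mL DAPI and measured by flow cytometry, with analysis in FlowJo. IC50 is the antibody concentration giving half-maximal inhibition of CD47/Fc binding.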

human SIRPα variant 2 [5] = target: T1, human SIRPα variant 2; assay: CELISA, CHO-K1 transfectants; average of two experiments
Protocol: (§2) The binding specificity of antibodies hSIRPα.40A and hSIRPα.50A to hSIRPα were compared in a CELISA format. In short, CHO-K1 cells were transiently transfected with hSIRPαV1, hSIRPαV2, hSIRPβ1, hSIRPβL, and hSIRPγ cDNAs. Subsequently, hSIRPα binding was assessed by CELISA using CHO-K1.hSIRPαV1, CHO-K1.hSIRPαV2, CHO-K1.hSIRPβ1, CHO-K1.hSIRPβL, and CHO-K1.hSIRPγ cells. Detection of bound antibody was done with goat-anti-mouse IgG-HRP (Southern Biotech).

human SIRPα variant 1 [6] = target: T2, human SIRPα variant 1; assay: as above
Protocol: as §2

human SIRPγ = target: T3, human SIRPγ (human, UniProt Q9P1W8 29-387); assay: as above
T3 construct: on transfected CHO-K1 cells; also called hSIRPγ
Protocol: as §2

hSIRPαV3 (NA07056_V3) = target: T4, hSIRPαV3 (NA07056_V3) (human, UniProt P78324 31-504); assay: CELISA, CHO-K1 transfectants
T4 construct: also called human SIRPαV3
Protocol: as §2
(§3) In addition, the specificity of hSIRPα.40A for all known of hSIRPα alleles (allelic variants as described by Takenaka et al., Nat Immunol. 8:1313-1323 (2007) was further investigated by CELISA using the same strategy as above. To this end, hSIRPα.40A binding was assessed using CHO-K1 cells that were transiently transfected with cDNAs encoding full length hSIRPαV1, hSIRPαV2, hSIRPαV3 (NA07056_V3) (SEQ ID NO: 44), hSIRPαV4 (NA11832_V4) (SEQ ID NO: 46), hSIRPαV5 (NA18502_V5) (SEQ ID NO: 48), hSIRPαV6 (NA18507_V6) (SEQ ID NO: 50), hSIRPαV8 (NA18570_V8) (SEQ ID NO: 52), and hSIRPαV9 (NA18943_V9) (SEQ ID NO: 54).

hSIRPαV9 (NA18943_V9) = target: T5, hSIRPαV9 (NA18943_V9) (human, UniProt P78324 31-504); assay: CELISA, CHO-K1 transfectants
T5 construct: also called human SIRPαV9
Protocol: as §2, §3

T2 sequence (P78324 31-504 limits assumed, change not shown): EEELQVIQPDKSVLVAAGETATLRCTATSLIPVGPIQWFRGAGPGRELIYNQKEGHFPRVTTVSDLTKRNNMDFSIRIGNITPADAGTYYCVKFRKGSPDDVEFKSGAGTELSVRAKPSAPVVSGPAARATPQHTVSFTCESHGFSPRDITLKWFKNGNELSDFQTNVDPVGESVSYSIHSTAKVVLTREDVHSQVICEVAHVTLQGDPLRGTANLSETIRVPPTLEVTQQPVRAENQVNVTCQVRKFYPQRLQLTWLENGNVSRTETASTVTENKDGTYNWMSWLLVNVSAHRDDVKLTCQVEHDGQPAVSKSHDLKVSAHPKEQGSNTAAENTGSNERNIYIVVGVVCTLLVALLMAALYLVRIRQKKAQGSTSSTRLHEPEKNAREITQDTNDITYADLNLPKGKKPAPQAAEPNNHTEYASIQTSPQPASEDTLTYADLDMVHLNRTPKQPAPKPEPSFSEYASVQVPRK
T1 sequence (P78324 other isoform, or with tags, fused parts or gaps mutant limits assumed): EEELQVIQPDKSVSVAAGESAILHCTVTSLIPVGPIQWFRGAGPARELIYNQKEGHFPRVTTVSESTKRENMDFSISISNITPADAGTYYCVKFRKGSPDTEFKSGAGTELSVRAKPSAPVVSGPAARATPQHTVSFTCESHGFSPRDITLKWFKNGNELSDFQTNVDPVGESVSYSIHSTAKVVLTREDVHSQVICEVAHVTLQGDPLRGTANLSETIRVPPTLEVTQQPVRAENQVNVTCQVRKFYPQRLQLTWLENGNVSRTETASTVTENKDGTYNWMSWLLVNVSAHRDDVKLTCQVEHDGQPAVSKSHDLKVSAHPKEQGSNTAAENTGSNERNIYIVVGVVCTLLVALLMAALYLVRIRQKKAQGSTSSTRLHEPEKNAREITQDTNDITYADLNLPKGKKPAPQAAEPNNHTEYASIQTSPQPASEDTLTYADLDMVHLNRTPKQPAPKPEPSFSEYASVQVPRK
T3 sequence (Q9P1W8 29-387 limits assumed): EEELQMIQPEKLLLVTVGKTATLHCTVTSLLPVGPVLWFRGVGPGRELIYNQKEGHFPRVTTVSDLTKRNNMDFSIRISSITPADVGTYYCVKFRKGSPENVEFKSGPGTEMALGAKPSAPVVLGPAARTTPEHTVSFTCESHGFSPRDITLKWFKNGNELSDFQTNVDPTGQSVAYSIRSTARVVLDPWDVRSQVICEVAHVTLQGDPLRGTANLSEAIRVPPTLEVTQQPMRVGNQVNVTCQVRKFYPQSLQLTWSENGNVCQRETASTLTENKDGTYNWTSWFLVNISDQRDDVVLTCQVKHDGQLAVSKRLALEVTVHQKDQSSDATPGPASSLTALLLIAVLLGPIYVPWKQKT

B1: KWAR23 (antibody, V domains shown)
VH: EVQLQQSGAELVKPGASVKLSCTASGFNIKDYYIHWVQQRTEQGLEWIGRIDPEDGETKYAPKFQDKATITADTSSNTAYLHLSSLTSEDTAVYYCARWGAYWGQGTLVTVSS
VL: QIVLTQSPAIMSASPGEKVTLTCSASSSVSSSYLYWYQQKPGSSPKLWIYSTSNLASGVPARFSGSGSGTSYSLTISSMEAEDAASYFCHQWSSYPRTFGAGTKLELK
EC50 (human SIRPα variant 2 [1]): 49 pM
EC50 (human SIRPα variant 1 [2]): 70 pM
EC50 (human SIRPα variant 1 [3]): 135 pM

B2: hSIRPα.50A (antibody, V domains shown)
VH: QVQLQQSGPELVKPGASVRISCKASGFTFTNYYIHWVKQRPGQGLEWIGWIYPGNVNTKYNEKFKAKATLTADKSSTTAYMQLSSLASEDSAVYFCARPTIIATDFDVWGAGTTVTVSS
VL: DIVMTQSHKFMSTSVGDRVNITCKASQGVGTAVGWYQQKPGQSPRLLIYWASTRHTGVPDRFTGSGSGTDFSLAISNVQSEDLADYFCQQYSTYPFTFGGGTNLEIK
notes: light chain constant domain not tied; also called mouse hSIRPα.50A; hSIRPα.50A.mIgG1
IC50 (human SIRPα variant 1 [4]): 19500 pM
EC50 (human SIRPα variant 2 [1]): 645 pM
EC50 (human SIRPα variant 1 [2]): 773 pM
EC50 (human SIRPα variant 2 [5]): 1160 pM
EC50 (human SIRPα variant 1 [6]): 1430 pM
EC50 (human SIRPγ): 1990 pM
EC50 (human SIRPα variant 1 [3]): 307 pM
EC50 (hSIRPαV3 (NA07056_V3)): 1770 pM
EC50 (hSIRPαV9 (NA18943_V9)): 1370 pM

B3: hSIRPα.40A (antibody, mouse IgG1, kappa, V domains shown)
VH: EVQFQQSGTVLARPGTSVKMSCKASGSTFTSYWMHWVKQGPGQGLQWIGAIYPVNNDTTYNQKFKGKAELTVVTSTSTAYMEVSSLTNEDSAVYYCTRSFYYSLDAAWFVYWGQGTLVTVSA
VL: DIQMTQSPSSLSASLGERVSLTCRASQDIGSRLNWLQQEPDGTIKRLIYATSSLDSGVPKRFSGSRSGSDYSLTISGLESEDFVDYYCLQYASSPFTFGGGTKLEINR
notes: mouse antibody, full chains without signal peptide; also called mouse hSIRPα.40A
IC50 (human SIRPα variant 1 [4]): 1340 pM
EC50 (human SIRPα variant 2 [1]): 93 pM
EC50 (human SIRPα variant 1 [2]): 114 pM
EC50 (human SIRPα variant 2 [5]): 88 pM
EC50 (human SIRPα variant 1 [6]): 109 pM
EC50 (human SIRPγ): 99 pM
EC50 (human SIRPα variant 1 [3]): 53 pM
EC50 (hSIRPαV3 (NA07056_V3)): 107 pM
EC50 (hSIRPαV9 (NA18943_V9)): 115 pM
